Among the data in PMC6579771 are % of initial fluorescence intensity left after 10 min perfusion with PBS only values, retold here.

The target of this assay is S2-AAL, monovalent form of Aleuria aurantia lectin (Aleuria aurantia). Briefly: microfluidic displacement assay with fluorescence detection; S2-AAL immobilised on the PDMS/glass microchannel (APTES, glutaraldehyde), blocked with BSA; labeled lactoferrin 0.15 mg/ml in PBS perfused, washed with PBS; then fucose in PBS or PBS alone at 0.1 ul/min; fluorescence at the ….

Substance “Human lactoferrin isolated from breast milk, labeled with DyLight 488 (natural protein)” registered a % of initial fluorescence intensity left after 10 min perfusion with PBS only of 99%.
